According to paper doi:10.1101/221747:

Assays:
[1] = biological target: Med15 activator-binding domain 2 (ABD2; residues 277–368) (yeast) (UniProt P19659); experiment: ITC + fluorescence polarisation
[2] = biological target: Med15 158–651 Δ239–272, Δ373–483 (ABD123) (yeast) (UniProt P19659); experiment: fluorescence polarisation
[3] = biological target: Med15 1–651 Δ239–272, Δ373–483 (KIX123) (yeast) (UniProt P19659); experiment: fluorescence polarisation

| Substance | Kd [1] [µM] | fold higher affinity than the strongest piecemeal interaction [2] [fold] | increase of affinity over ABD123 [3] [%] |
| --- | --- | --- | --- |
| Gcn4 central activation domain (cAD; residues 101–134) (from UniProt P03069 101-134) (domain or fragment) | 150 | – | – |
| Gcn4 tandem activation domains (tAD; residues 1–134) (from UniProt P03069 1-134) (domain or fragment) | – | 20 | 30 |
